Measurements from patent US20240239881A1 (Innovent, published 2024).
Substitutions are numbered along the chain they refer to.

Assays:
[1] = target: T1, Rhesus ANG2 (rhesus, UniProt F6QXG0 19-496); experiment: SPR, Biacore T200, antibody captured on Protein G chip, experiment 1
T1 sequence: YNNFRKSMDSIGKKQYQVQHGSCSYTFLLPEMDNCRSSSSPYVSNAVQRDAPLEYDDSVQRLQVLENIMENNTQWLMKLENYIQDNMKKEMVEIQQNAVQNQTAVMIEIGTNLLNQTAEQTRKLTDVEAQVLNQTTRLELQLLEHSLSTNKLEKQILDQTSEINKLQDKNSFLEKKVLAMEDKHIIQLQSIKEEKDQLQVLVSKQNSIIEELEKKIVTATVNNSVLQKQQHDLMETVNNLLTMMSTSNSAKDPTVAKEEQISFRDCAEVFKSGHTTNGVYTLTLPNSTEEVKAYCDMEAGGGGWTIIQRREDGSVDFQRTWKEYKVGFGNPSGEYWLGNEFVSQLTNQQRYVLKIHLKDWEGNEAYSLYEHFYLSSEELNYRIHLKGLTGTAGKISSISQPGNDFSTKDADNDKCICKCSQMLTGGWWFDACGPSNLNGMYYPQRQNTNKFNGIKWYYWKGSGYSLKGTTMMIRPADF
Method: (§1) The antibody was diluted to 1 μg/mL and was captured onto channel 2 for 30 s, and channel 1 was the blank control channel. The gradient-diluted Human ANG2, Rhesus ANG2, Rabbit ANG2, Rat ANG2 and Mouse ANG2 were sequentially injected into channels 1 and 2 of the chip, from low to high concentrations (0-32 nM), at a flow rate of 30 μL/min, with one concentration per cycle, and with 180 s association time and 1200 s dissociation time at 25° C. Finally, the chip was regenerated using Glycine pH 1.5 at 30 μL/min for 30 s. The affinity assay was repeated three times.

[2] = target: T2, human Ang2 (human, UniProt O15123 19-496, limits assumed); experiment: as above
T2 construct: also called hAng2; h Ang2
T2 sequence: T1 sequence with V279I, L284F, V291I, A410G, G468A
Method: as §1

[3] = target: T3, Rabbit ANG2 (rabbit, UniProt G1T9B3 19-496); experiment: SPR, Biacore T200, antibody captured on Protein G chip, experiment 2
T3 sequence: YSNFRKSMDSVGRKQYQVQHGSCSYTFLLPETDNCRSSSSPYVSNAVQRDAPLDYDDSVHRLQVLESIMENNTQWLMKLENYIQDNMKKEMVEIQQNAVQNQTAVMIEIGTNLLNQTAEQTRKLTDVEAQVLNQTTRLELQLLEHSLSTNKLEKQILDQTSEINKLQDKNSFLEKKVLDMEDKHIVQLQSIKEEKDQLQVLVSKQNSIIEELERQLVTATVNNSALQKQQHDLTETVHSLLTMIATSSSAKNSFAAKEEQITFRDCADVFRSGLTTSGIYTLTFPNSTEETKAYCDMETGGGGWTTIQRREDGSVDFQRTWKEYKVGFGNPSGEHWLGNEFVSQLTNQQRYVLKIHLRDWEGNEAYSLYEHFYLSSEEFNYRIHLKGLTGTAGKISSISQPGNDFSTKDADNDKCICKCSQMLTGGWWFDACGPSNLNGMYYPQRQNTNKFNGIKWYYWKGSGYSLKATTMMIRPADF
Method: as §1

[4] = target: T1, Rhesus ANG2; experiment: as above
Method: as §1

[5] = target: T2, human Ang2; experiment: as above
Method: as §1

[6] = target: T4, recombinant biotinylated hAngiopoietin-2 protein (R&D, Cat. No.: BT623B/CF) (human, UniProt O15123 19-496, limits assumed, biotinylated (sites not given)); experiment: blocking ELISA: antibody titrated against biotinylated hAng2 (300 ng/ml final); blocked binding to coated hTie2 protein; Avidin-HRP detection
T4 construct: Bought protein; also called Biotin Ang2; human biotin Ang2 protein
T4 sequence: T1 sequence with V279I, L284F, V291I, A410G, G468A
Method: The abilities of 81H10, 86E9, 107H7, hz81H10.4, Amhz81H10.4.30, Amhz81H10.4.49, and the control antibodies Nesvacumab and faricimab to block the binding of human Ang2 to hTie2 were determined by ELISA. Faricimab is a bispecific antibody drug undergoing a clinical trial and developed by Roche, which targets both angiopoietin-2 (Ang-2) and VEGF-A.
Then the plate was blocked using 5% BSA for 1 h. The biotinylated antigen, recombinant biotinylated hAngiopoietin-2 protein (R&D, Cat. No.: BT623B/CF), was diluted to 600 ng/ml, and was added into the microtiter plate at 50 μl/well. The antibodies (81H10, 86E9, 107H7, hz81H10.4, Amhz81H10.4.30 and Amhz81H10.4.49) prepared as described above were gradiently diluted with a total of 8 or 12 dilution points starting from the highest concentration, and then added to the microtiter plate at 50 μl/well, and incubated in PBS on ice for 30 min. Then, 50 ul of antigen solution was added to the microtiter plate, in which the final antigen concentration was 300 ng/ml. The plate containing the antigen-antibody mixture was incubated for 90 min. After three washes with PBS, the supernatant was discarded, and Avidin-HRP (Invitrogen) diluted at 1:10000 was added at 100 μl/well, then incubated at room temperature for 30 min. PBS was used to wash the plate six times. Then TMB chromogen solution (solarbio) was added at 100 ul/well to allow for chromogenic reaction for 1 min, then the reaction was terminated with the addition of stop solution (solarbio) at 100 ul/well.

Kd [1]: 0.183 nM
koff [1]: 4.87e-05 s⁻¹
kon [1]: 266000 M⁻¹ s⁻¹
Kd [2]: 0.0694 nM
koff [2]: 1.74e-05 s⁻¹
kon [2]: 250000 M⁻¹ s⁻¹
Kd [3]: 0.477 nM
koff [3]: 0.000152 s⁻¹
kon [3]: 318000 M⁻¹ s⁻¹
Kd [4]: 0.126 nM
koff [4]: 3.67e-05 s⁻¹
kon [4]: 291000 M⁻¹ s⁻¹
Kd [5]: 0.0319 nM
koff [5]: 8.25e-06 s⁻¹
kon [5]: 259000 M⁻¹ s⁻¹
IC50 [6]: 0.728 nM
B1: humanized antibody hz81H10.4 (antibody, human IgG1, kappa, V domains shown)
VH: EVQLVESGGGLVKPGGSLRLSCAASGFTFSNYWMNWVRQAPGKGLEWVAEIRLKSNNYATHYAESVKGRFTISRDVSKNTVYLQMNSLKTEDTAVYYCTDTAPFAYWGQGTLVTVSS
VL: DIQMTQSPSSLSASVGDRVTITCKASQDVGTDVAWYQQKPGKAPKLLIYWASTRHTGVPSRFSGSGSGTDFTLTISSLQPEDFATYYCQQYSSYPLTFGGGTKVEIKR
notes: also called IBI335
